Source: US20200055939A1 (Genentech, published 2020)

T1: R279A
T1 construct: % monomer 95.2; also called MICA*008.mIgG2a R279A
T1 chain: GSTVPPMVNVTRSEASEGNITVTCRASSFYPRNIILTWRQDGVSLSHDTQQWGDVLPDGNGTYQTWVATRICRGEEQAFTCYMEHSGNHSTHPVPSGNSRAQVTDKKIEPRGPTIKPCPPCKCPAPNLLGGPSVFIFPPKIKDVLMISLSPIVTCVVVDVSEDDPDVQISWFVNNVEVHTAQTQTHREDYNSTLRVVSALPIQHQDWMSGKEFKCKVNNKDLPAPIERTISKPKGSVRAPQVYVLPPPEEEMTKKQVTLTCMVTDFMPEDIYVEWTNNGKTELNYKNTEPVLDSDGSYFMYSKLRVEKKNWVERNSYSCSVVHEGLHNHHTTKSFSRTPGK

T2: E285A
T2 construct: % monomer 83.78; also called MICA*008.mIgG2a E285A
T2 chain: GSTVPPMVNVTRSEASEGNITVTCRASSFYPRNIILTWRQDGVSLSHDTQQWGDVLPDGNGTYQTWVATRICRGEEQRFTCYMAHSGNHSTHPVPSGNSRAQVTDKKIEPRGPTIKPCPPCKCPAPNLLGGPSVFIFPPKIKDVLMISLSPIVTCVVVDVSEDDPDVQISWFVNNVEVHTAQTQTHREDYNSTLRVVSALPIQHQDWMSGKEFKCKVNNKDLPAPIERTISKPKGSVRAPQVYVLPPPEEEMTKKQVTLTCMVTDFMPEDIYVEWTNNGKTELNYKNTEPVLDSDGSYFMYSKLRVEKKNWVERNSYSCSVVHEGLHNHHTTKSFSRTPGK

T3: N289A
T3 construct: % monomer 89.74; also called MICA*008.mIgG2a N289A
T3 chain: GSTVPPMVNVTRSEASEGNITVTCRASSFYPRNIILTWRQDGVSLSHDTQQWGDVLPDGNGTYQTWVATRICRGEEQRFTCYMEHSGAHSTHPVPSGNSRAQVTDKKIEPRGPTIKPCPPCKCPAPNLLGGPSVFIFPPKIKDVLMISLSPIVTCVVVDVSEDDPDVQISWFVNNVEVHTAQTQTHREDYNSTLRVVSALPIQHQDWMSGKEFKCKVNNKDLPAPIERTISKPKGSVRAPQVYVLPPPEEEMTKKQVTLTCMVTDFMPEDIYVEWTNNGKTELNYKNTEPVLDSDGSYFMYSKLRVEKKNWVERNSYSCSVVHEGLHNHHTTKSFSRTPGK

T4: H290A
T4 construct: % monomer 90.37; also called MICA*008.mIgG2a H290A
T4 chain: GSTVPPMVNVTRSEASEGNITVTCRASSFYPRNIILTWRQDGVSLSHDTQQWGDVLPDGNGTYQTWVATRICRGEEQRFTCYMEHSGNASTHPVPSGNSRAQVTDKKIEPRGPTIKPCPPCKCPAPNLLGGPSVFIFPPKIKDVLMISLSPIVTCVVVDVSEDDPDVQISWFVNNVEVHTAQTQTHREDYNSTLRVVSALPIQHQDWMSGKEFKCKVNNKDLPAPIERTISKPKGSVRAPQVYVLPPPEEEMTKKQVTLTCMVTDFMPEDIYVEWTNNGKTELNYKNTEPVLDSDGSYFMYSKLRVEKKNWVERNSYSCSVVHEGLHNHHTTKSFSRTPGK

T5: S245A
T5 construct: % monomer 93.96; also called MICA*008.mIgG2a S245A
T5 chain: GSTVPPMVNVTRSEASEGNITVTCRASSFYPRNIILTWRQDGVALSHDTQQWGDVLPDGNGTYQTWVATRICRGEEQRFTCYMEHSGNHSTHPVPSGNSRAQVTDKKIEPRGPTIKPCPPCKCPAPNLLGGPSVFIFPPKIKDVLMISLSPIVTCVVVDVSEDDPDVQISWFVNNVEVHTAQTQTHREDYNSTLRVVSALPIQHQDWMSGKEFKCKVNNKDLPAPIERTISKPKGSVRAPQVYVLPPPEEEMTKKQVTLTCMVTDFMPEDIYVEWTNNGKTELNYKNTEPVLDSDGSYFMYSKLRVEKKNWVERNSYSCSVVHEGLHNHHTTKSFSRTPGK

T6: T238A
T6 construct: % monomer 96; also called MICA*008.mIgG2a T238A
T6 chain: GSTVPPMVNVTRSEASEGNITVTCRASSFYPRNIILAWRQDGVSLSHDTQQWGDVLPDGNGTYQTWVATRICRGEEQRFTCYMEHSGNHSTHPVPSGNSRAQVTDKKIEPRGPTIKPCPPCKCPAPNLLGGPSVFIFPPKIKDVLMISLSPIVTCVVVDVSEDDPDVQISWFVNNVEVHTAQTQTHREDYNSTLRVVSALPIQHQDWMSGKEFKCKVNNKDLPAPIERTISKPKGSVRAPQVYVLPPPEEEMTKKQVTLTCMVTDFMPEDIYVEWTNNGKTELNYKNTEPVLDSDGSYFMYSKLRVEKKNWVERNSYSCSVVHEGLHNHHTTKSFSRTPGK

T7: S297A
T7 construct: % monomer 89.24; also called MICA*008.mIgG2a S297A
T7 chain: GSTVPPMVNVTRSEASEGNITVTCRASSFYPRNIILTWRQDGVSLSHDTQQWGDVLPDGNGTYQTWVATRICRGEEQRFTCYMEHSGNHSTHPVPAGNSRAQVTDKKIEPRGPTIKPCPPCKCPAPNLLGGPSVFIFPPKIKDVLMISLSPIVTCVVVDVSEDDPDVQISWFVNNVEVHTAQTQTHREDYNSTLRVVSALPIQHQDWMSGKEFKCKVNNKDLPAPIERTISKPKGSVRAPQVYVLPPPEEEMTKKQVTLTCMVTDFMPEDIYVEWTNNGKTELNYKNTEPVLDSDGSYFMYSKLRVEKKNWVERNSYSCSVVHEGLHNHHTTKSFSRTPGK


What was measured:
Assay in all cases: SPR, Fab over captured MICA*008.mIgG2a Ala variant; KD relative to wild type
R279A = target: T1, R279A
E285A = target: T2, E285A
N289A = target: T3, N289A
H290A = target: T4, H290A
S245A = target: T5, S245A
T238A = target: T6, T238A
S297A = target: T7, S297A

| fold-decrease in affinity (R279A) | fold-decrease in affinity (E285A) | fold-decrease in affinity (N289A) | fold-decrease in affinity (H290A) | fold-decrease in affinity (S245A) | fold-decrease in affinity (T238A) | fold-decrease in affinity (S297A) | Binder |
| --- | --- | --- | --- | --- | --- | --- | --- |
| 0.8 | 0.9 | 1.1 | 0.8 | 1 | 1.3 | 1.2 | 2E5.2.3 Fab (Fab, V domains shown) VH: QGQMQQSGAELVKPGASVKLSCKTSGFTFSDNYISWLKQKPGQSLEWIAWIYAGTGGTSYNQKFTAKAQLTVDTSSSTAYMQFSSLTTEDSAIYYCARHDYYGTSGAWFAYWGQGTLVTVSA VL: DVLMTQTPLSLPVSLGDQASLSCRSSQNIVHINGNTYLEWYLQKPGQSPKLLIYKVSNRFSGVPDRFSGSGSGTDFTLKISRVEAEDLGVYYCFQGSHVPWTFGGGTKVEIK |
| 4.5 | 3.9 | 1.2 | 8.4 | 1.2 | 0.1 | 1 | 6F8.7 Fab (Fab, V domains shown) VH: DVQLQGSGPGLVKPSQSLSLTCSVTGYSITNDYYWNWIRQFPGNKLEWMGFISFGGSNNYNPSLKNRISITRDTSKNQFFLKLSSVTTEDTATYYCARYDGRGAWFAYWAQGTLVTVSA VL: DIQMTQSPASLSASVGETVTITCRASGNIHNYLAWYQQKQGKSPQLLVYDAITLADGVPSRFSGSGSGTQYSLKINSLQPEDFGNYYCQHFWSFPLTFGAGTKVEIK |
| 5.1 | 7.9 | 3.5 | 8.8 | 1.6 | 0.1 | 1.1 | 7D4.6 Fab (Fab, V domains shown) VH: DVQLQESGPGLVKPSQSLSLTCTVTGYSITSDYAWNWIRQFPRNKLEWMGYINYSGTTNYNPSLKSRISITRDTSKNQFFLQLISVTTEDTATYYCSYYRYDGAWFPYWGQGTLVTVSA VL: DIQMTQSPASLSASVGETVTITCRASGNIHNYLAWYQQKQGKSPQLLVYNAIMLADGVPSRFSASGSGTQYSLKINSLQPEDFGSYYCQHFWSFPLTFGAGTKVEIK |
| – | – | 0.2 | – | – | 0.4 | 0.05 | 1D5 Fab (Fab, V domains shown, Expressed in E. coli as chimera of murine variable and human constant domains; not shown: human IgG1 CH1 constant domain; human kappa CL constant domain) VH: EIQLQQSGPELVKPGASVKVSCKASGYAFTSQNIYWVKQSHGKSLEWIGYIEPYNVVPMYNPKFKGKATLTVDKSSSSAYIHLNSLTSEDSAIYYCARSGSSNFDYWGQGTTLTVSS VL: EIILTQSPTTMAASPGEKITITCSASSSISSHYLHWYQQKSGFSPKLLIYRTSNLASGVPARFSGSGSGTSYSLTIGTMEAEDVATYYCQQGSSLPLTFGAGTKVEIK |
